The values that follow come from article PMC8659020, “Ferrocene-Labelled Electroactive Aptamer-Based Sensors (Aptasensors) for Glycated Haemoglobin”.

In the data set the target is Haemoglobin (Hb) (UniProt P69905;P68871 2-142;2-147). Kind of data set: differential pulse voltammetry (electrochemical aptasensor); aptamer immobilized on electrode; DPV in 10 mM Tris-HCl (stated for clinical-range test; pH and temperature not given); EIS in 5 mM [Fe(CN)6]3-/4-, 0.1 M KCl; aptamer loaded in 5 mM MgCl2, 10 mM Tris-HCl, electrodes rinsed with 0.1 M PBS pH 6.5, 1 mM MgCl2. The following applies: protein: commercial; chain copies: 2;2; label: 5' ferrocene; single strand, Mfold-predicted secondary structure.
Haemoglobin (Hb), sequence (P69905 2-142, chain 1 of 2): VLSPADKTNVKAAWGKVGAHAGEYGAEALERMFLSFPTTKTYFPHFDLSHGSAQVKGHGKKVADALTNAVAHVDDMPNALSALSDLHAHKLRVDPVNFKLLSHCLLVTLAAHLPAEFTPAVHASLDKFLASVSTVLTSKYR
Haemoglobin (Hb), sequence (P68871 2-147, chain 2 of 2): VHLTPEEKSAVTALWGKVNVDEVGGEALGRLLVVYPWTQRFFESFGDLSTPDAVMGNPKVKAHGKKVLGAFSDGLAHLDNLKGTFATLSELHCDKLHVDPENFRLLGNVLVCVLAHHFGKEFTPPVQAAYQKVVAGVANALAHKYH

B1: Hb aptamer (II) (ssDNA)
DNA: ACGCACACCAGAGACAAGTAGCCCCCCAAACGCGGCCACGGAACGCAGCACCTCCATGGC
modifications: 5' ferrocene; 3' thiol (SH), immobilized on gold screen-printed electrode
As usually defined, the Kd is a measure of binding affinity in units of concentration. In the case of B1, the Kd is 95.9 ± 40 mg/L.
